Six molecules from US20240254246A1 (PROMETHEUS BIOSCIENCES, published 2024) can be followed below.

Substitutions are numbered along the chain they refer to.

Assay [1] deals with T1, recombinant cynomolgus CD30L (cynomolgus, UniProt A0A7N9CVX7 63-234).
T1 construct: Purified recombinant protein; also called rcyCD30L; cyno CD30L
T1 sequence: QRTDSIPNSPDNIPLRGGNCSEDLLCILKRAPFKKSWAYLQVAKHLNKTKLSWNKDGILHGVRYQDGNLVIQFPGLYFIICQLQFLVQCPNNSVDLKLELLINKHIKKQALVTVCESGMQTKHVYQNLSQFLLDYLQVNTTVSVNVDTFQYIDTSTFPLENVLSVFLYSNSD
Put plainly: ELISA on recombinant protein.

The target in assay [2] is T2, recombinant human CD30L (human, UniProt P32971 63-234).
T2 construct: Purified recombinant protein of ELISA, BLI, Carterra and KinExA; also called rhCD30L; huCD30L
T2 sequence (looked up): T1 sequence with I13V, R16K, V142I, V165I
In words: ELISA on recombinant protein.

Assay [3] addresses T3, recombinant mouse CD30L (mouse, UniProt P32972 68-239).
T3 construct: Purified recombinant protein; also called rmCD30L
T3 sequence (looked up): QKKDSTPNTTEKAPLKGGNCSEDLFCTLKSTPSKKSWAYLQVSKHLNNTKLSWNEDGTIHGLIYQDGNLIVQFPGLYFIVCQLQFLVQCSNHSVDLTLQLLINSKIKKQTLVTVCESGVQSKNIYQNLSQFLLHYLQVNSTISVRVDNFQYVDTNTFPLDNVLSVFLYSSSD
In words: ELISA on recombinant protein.

Assay [4] addresses T4, human CD30L expressed on B16 cells (human, UniProt P32971 1-234).
T4 construct: whole, on cells; B16 cell line transfected to express human CD30L; also called B16-huCD30L; B16-rhCD30L
T4 sequence (looked up): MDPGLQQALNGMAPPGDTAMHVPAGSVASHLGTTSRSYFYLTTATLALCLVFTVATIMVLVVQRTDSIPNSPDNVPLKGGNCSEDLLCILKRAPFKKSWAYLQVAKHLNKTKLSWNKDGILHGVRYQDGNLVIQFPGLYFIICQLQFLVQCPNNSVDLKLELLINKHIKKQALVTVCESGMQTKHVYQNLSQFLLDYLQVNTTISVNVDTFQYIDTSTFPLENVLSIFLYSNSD
In words: flow cytometry on B16 cells expressing hCD30L.

Assay [5] concerns the target T2, recombinant human CD30L. Put plainly: recombinant blocking ELISA; competitor CD30.
Assay [6] has as its target T2, recombinant human CD30L. Put plainly: ELISA, binding to rhCD30L (OD 450 nm).
In assay [7] the target is T4, human CD30L expressed on B16 cells. In words: flow cytometry, binding to B16 cells expressing human CD30L (MFI).
Assay [8] concerns the target T2, recombinant human CD30L. Put plainly: BLI, CD30 association to CD30L held by captured IgG; competitor rhCD30.
Procedure: Briefly, individual anti-human biosensors were loaded with purified IgG (normalized to 10 μg/mL) and a baseline was measured for each biosensor. Biosensors were saturated with biotin and with polyclonal hulgG and a baseline was measured. Loaded biosensors were then allowed to bind CD30L and the association rate was measured for the binding. Biosensors were moved to buffer wells to measure the dissociation rate.
Assay [9] concerns the target T5, recombinant human CD30L protein (human, UniProt P32971 63-234).
T5 construct: Recombinant protein used in ELISA; also called huCD30L
T5 sequence (looked up): T1 sequence with I13V, R16K, V142I, V165I
In words: ELISA, CD30 competitor, undil.

In assay [10] the target is T5, recombinant human CD30L protein. In words: ELISA, CD30 competitor, 1/1000 dil.
For assay [11] the target is unchanged. Put plainly: ELISA, CD30 competitor, 1/100 dil.
Assay [12] has the same target. Put plainly: ELISA, CD30 competitor, 1/10 dil.
Assay [13] has as its target T6, recombinant cynomolgus CD30L protein (cynomolgus, UniProt A0A7N9CVX7 63-234).
T6 construct: Recombinant protein used in ELISA; also called cyCD30L
T6 sequence: T1 sequence
In words: ELISA, 1/50 dil.

The target in assay [14] is T6, recombinant cynomolgus CD30L protein. In words: ELISA, 1/500 dil.
For assay [15] the target is unchanged. Put plainly: ELISA, 1/5000 dil.
The target in assay [16] is T7, CDH13 (human, UniProt P55290 139-693).
T7 construct: whole, on cells; also called hit #16
T7 sequence (looked up): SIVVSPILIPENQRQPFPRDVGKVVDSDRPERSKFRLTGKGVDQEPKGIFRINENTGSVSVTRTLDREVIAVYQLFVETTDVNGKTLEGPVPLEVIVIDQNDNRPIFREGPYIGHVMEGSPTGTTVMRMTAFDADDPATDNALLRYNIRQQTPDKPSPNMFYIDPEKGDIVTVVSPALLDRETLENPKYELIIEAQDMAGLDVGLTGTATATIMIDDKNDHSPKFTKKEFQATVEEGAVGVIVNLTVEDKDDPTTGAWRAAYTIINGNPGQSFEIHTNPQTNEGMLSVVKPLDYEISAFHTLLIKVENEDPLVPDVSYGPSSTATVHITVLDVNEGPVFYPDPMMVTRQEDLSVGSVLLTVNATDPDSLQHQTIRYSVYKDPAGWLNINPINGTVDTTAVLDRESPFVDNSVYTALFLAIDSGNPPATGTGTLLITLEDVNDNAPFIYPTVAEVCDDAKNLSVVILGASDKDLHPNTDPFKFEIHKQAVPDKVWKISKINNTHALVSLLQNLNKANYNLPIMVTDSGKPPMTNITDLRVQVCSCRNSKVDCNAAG
Put plainly: cell microarray, library and confirmation screens.

B1: anti-CD30L antibody clone 64 (antibody, V domains shown)
VH: EVQLVESGGGLVQPGGSLRLSCAASGFTFSNYAMTWVRQAPGKGLEWVSAISGFGGSTYYADSVKGRFTISRDNSKNTLYLQMNSLRAEDTAVYYCAKDHDYYAFDYWGQGTLVTVSS
VL: not shown
notes: purified recombinant IgG (held by anti-human biosensors); mouse strain #1
As to B1, the “rcyCD30L (+) ELISA” value in [1] was 0.951. Also, in assay [2], the “rhCD30L (+) ELISA” value amounted to 2.04. Also, the “rmCD30L (+) ELISA” value in assay [3] amounted to 0.049. Also, the “hCD30L B16 (+) FLOW” value in [4] was 5.67e+06. The IC50 in assay [5] came to 3.17 nM. The concentration for a half-maximal effect (EC50 (read off the curve)) in assay [6] was approximately 0.1 nM; in assay [7], approximately 1 nM. In addition, the “rhCD30L:rhCD30 Blocking” value in assay [8] was 0.0633.

B2: anti-CD30L antibody clone 65 (antibody, V domains shown)
VH: B1 VH with R19K, F54Y, D62A, Y80F, T115P
VL: not shown
notes: as for B1
B2: the “rcyCD30L (+) ELISA” value in assay [1] was 1.38. In addition, the “rhCD30L (+) ELISA” value in assay [2] was 1.97. Besides, in assay [3], the “rmCD30L (+) ELISA” value came to 0.047. Also, in assay [4], the “hCD30L B16 (+) FLOW” value was 6.91e+06. In addition, in assay [5], the IC50 was 3.66 nM. The “EC50 (read off the curve)” value was approximately 0.1 nM in assay [6] and approximately 1 nM in assay [7]. The “rhCD30L:rhCD30 Blocking” value in [8] was 0.0522.

B3: anti-CD30L antibody clone 63 (antibody, V domains shown)
VH: EVQLVESGGGLVQPGGSLRLSCAASGFMFSSYSMNWVRQAPGKGLEWVSYISSSSSTIYDADSVKGRFTISRDDAKNSLYLQMNSLRDEDTAVYYCTREAYPGYYYNYMDVWGKGTTVTVSS
VL: DIQMTQSPSSLSASVGDRVTITCRASQSISSRLAWYQQKPGKAPNLLIYKASNLESGVPSRFSGSGSGTEFTLTISSLQPDDFATYYCQQYNSYSRTFGQGTKVEIK
notes: as for B1
With B3, the “rcyCD30L (+) ELISA” value in assay [1] was 0.724. In addition, the “rhCD30L (+) ELISA” value in assay [2] came to 1.87. The “rmCD30L (+) ELISA” value in [3] was 0.046. Moreover, in assay [4], the “hCD30L B16 (+) FLOW” value was 6.07e+06. In addition, the 50% inhibitory concentration (IC50) in assay [5] was 3.18 nM. For the same molecule, the “EC50 (read off the curve)” value in assay [6] is approximately 0.1 nM; in assay [7], approximately 1 nM. Moreover, the “rhCD30L:rhCD30 Blocking” value in assay [8] turned out to be 0.0592.

B4: Clone 4 (antibody, V domains shown)
VH: QVQLVESGGGVVQPGRSLRLSCAASGFPFSSYGMHWVRQAPGKGLEWVTFIWFDGNNKDYADSVKGRFSVSRDNSKNTLYLQMNSLRADDTAVYYCARNGVYYGSGAYVDYWGQGTLVTVSS
VL: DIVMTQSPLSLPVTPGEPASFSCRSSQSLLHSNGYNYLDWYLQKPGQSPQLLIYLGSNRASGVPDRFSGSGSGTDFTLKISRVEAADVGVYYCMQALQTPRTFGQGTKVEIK
notes: Hybridoma screening sample; also called CLONE_4 (parental)
As for B4, the “% inhibition” value amounted to 98% in [9], 0% in assay [10], 10% in [11] and 96% in assay [12]. Further, the “Elisa Binding (OD)” value in assay [13] worked out at 2.58 OD; in assay [14] it was 2.38 OD; in [15], 0.583 OD.

B5: anti-CD30L antibody clone 1 with IgG1 constant region SEQ ID NO: 502 (antibody, V domains shown)
VH: QVQLQESGPGLVKPSETLSLTCTVSGGSISGYYWSWIRQPPVKGLEWIGYIFYSGYTKYNPSLKSRVTISVDTSKNQFSLKLSSVTAADTAVYYCARDRWDFDYWGQGALVTVSS
VL: AIQMTQSPSYLSASVGDRVTIACRASQGIRNNLGWYQQKPGKAPKLLIYAESSLQSGVPSRFSGSGSGTDFTLTISSLQPEDFATYYCLQDFNYPYTFGQGTKLEIK
notes: copies: 2 + 2
For B5, in assay [16], the binding result is on record as “no binding (tested: 5 µg/mL)”.

B6: anti-CD30L antibody clone 1 germlined with IgG1 constant region SEQ ID NO: 502 (antibody, V domains shown)
VH: B5 VH with V42G, A109T
VL: B5 VL with Y10S, A22T
notes: copies: 2 + 2
B6: in assay [16], the binding result is reported as “no binding (tested: 5 µg/mL)”.
